Laboratory results: patent publication US20260184775A1 (Chugai, published 2026)

Assays:
[1] = molecular target: T1, recombinant mouse latent TGF-beta 1 (Flag-tagged mouse latent TGF-beta 1) (mouse, UniProt P04202 34-390); assay: SPR, Biacore T200, 37 C, pH 7.4; antibody captured by anti-human Fc, latent TGF-beta 1 at 3.125 to 50 nM as analyte; 1:1 model
T1 construct: also called mouse recombinant latent TGF-beta 1
Procedure: (§1) The affinities of anti-latent TGF-beta 1 antibodies binding to human or mouse latent TGF-beta 1 at pH 7.4 were determined at 37 degrees C. using Biacore T200 instrument (GE Healthcare). Anti-human Fc (GE Healthcare) was immobilized onto all flow cells of a CM4 sensor chip using an amine coupling kit (GE Healthcare). All antibodies and analytes were prepared in ACES pH 7.4 containing 20 mM ACES, 150 mM NaCl, 1.2 mM CaCl₂), 0.05% Tween 20, 0.005% NaN3. Each antibody was captured onto the sensor surface by anti-human Fc. Antibody capture levels were aimed at 300 resonance unit (RU). For TBA865 and TBA873, recombinant human or mouse latent TGF-beta 1 was injected at 12.5 to 200 nM prepared by two-fold serial dilution, followed by dissociation. For TBS139 and TBS182, recombinant human or mouse latent TGF-beta 1 was injected at 3.125 to 50 nM prepared by two-fold serial dilution, followed by dissociation. The sensor surface was regenerated each cycle with 3M MgCl2.

[2] = molecular target: T2, recombinant human latent TGF-beta 1 (Flag-tagged human latent TGF-beta 1) (human, UniProt P01137 34-390); assay: SPR, Biacore T200, 37 C, pH 7.4; antibody captured by anti-human Fc, latent TGF-beta 1 injected at 3.125 to 50 nM
T2 construct: Latent form: LAP plus mature TGF-beta 1; also called human recombinant latent TGF-beta 1; SLC
T2 sequence (P01137 other isoform, or with tags, fused parts or gaps limits assumed): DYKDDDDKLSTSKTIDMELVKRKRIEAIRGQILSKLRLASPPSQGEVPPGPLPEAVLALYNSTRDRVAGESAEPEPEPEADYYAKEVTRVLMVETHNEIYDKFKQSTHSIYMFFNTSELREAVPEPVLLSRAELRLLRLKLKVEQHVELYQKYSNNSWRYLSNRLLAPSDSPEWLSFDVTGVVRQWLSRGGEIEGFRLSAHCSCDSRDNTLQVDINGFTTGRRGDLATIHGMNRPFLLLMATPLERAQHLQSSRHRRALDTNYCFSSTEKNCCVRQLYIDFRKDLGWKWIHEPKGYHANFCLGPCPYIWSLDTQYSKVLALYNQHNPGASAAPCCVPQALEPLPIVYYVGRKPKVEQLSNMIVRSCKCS
Procedure: as §1

T1 sequence (P04202 other isoform, or with tags, fused parts or gaps limits assumed): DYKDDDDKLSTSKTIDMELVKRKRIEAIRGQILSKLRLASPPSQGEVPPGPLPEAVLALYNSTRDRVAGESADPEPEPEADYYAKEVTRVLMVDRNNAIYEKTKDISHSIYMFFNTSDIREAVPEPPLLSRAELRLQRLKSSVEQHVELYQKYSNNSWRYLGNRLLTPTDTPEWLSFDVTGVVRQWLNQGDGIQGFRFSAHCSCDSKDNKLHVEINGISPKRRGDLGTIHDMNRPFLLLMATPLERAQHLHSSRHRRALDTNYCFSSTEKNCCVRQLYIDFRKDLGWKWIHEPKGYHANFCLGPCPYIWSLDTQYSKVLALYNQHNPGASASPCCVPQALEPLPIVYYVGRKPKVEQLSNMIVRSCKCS

B1: TBS182 (antibody, V domains shown)
VH: QSLEESGGDLVKPGASLTLTCTASGFSFSRSYYMCWVRQAPGKGLEWIACIYGGSSGSTWYASWAKGRFTISKTSSTTVTLQMTSLTAADTATYFCARDIGNYYRWWGPGTLVTVSS
VL: AVVLTQTTSPVSAPVGGTVTIKCQASKNIYSLLAWYQQKPGQPPKLLIYDASTLASGVPSRFKGSGSGTQFTLTISDLECADAATYYCQSYYDSSSSADLSTFGGGTEVVVKR
Question: What does the source list for B1?
Answer: Kd [1]: 0.0482 nM; koff [1]: 5.32e-05 s⁻¹; kon [1]: 1.1e+06 M⁻¹ s⁻¹; binding result [2]: no binding (tested: 50 nM)
